Results as given in the supplement of paper PMC9233669.
This sample holds only a part of the variants without activity.

These sequences were tested on biotinyl-Phe-oxazolone (assay: self-aminoacylation, catalytic enhancement (BFO) (fold over background); higher = more active; k-Seq, kA / k0A0; sequences stand for … in GGGAAUGGAUCCACAUCUACGAAUUC…UUCACUGCAGACUUGACGAAGCUG).
Outline: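 The uncatalyzed rate is the low-activity peak of a bimodal Gaussian fit, and catalytic enhancement is median kA divided by it. The kA values came from pseudo-first-order fits, with 1000 bootstraps, of per-sequence fraction reacted measured by streptavidin capture, triplicate qPCR and Illumina sequencing. Mutagenized RNA pools with a 21-nt variable region (0.43 μM) were reacted with each biotinyl-aminoacyl-oxazolone at 2–1250 μM in 50 μL HEPES/NaCl/KCl/MgCl2/CaCl2 buffer with 5% acetonitrile, pH 6.9–7.0, for 90 minutes at room temperature.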

Sequence | self-aminoacylation
AAAUUUGCUAAUAGUCGGAAG [Fam3.1 aminoacylation ribozyme variant] | 2.57
AAGAUUGCUAACAGUCGCAAG [Fam3.1 aminoacylation ribozyme variant] | 2.49
AAGAUUGCUAAUAGUCGCAAC [Fam3.1 aminoacylation ribozyme variant] | 2.08
AAGAUUGCUGAUAGUCGCAAG [Fam3.1 aminoacylation ribozyme variant] | 2.57
AAGUCUGCUAAUAGUCGCAAA [Fam3.1 aminoacylation ribozyme variant] | 2.14
AAGUGUGCUAAUAGUGGCAAG [Fam3.1 aminoacylation ribozyme variant] | 2.86
AAGUUAGCUAAUAGUCGCUAG [Fam3.1 aminoacylation ribozyme variant] | 2.36
AAGUUAGUUAAUAGUCGCAAG [Fam3.1 aminoacylation ribozyme variant] | 2.7
AAGUUGGCUAAUAGUCCCAAG [Fam3.1 aminoacylation ribozyme variant] | 2.06
AAGUUUCAUAAUAGUCGCAAG [Fam3.1 aminoacylation ribozyme variant] | 2.19
AAGUUUCCUAAUAGUCGCCAG [Fam3.1 aminoacylation ribozyme variant] | 2.94
AAGUUUCCUACUAGUCGCAAG [Fam3.1 aminoacylation ribozyme variant] | 2.54
AAGUUUCCUUAUAGUCGCAAG [Fam3.1 aminoacylation ribozyme variant] | 2.75
AAGUUUGAUAAUAGUCGCAAU [Fam3.1 aminoacylation ribozyme variant] | 2.12
AAGUUUGCGAAUAGCCGCAAG [Fam3.1 aminoacylation ribozyme variant] | 4.03
AAGUUUGCGAAUAGGCGCAAG [Fam3.1 aminoacylation ribozyme variant] | 9.76
AAGUUUGCUAACAGUCGGAAG [Fam3.1 aminoacylation ribozyme variant] | 6.87

Sequence | self-aminoacylation
AAGUUUGCUAAUAGCCGCAAU [Fam3.1 aminoacylation ribozyme variant] | 2.22
AAGUUUGCUAAUAGUCAAAAG [Fam3.1 aminoacylation ribozyme variant] | 3.26
AAGUUUGCUAAUAGUUGCGAG [Fam3.1 aminoacylation ribozyme variant] | 2.61
AAGUUUGCUAAUGGUCGCAAU [Fam3.1 aminoacylation ribozyme variant] | 3.15
AAGUUUGCUGAUAGUCGCAGG [Fam3.1 aminoacylation ribozyme variant] | 2.42
AAGUUUGGUAAUAGUCGCGAG [Fam3.1 aminoacylation ribozyme variant] | 2.51
AAGUUUGUUCAUAGUCGCAAG [Fam3.1 aminoacylation ribozyme variant] | 2.01
AAGUUUUCAAAUAGUCGCAAG [Fam3.1 aminoacylation ribozyme variant] | 2.08
AAGUUUUCUAAUAGUCGAAAG [Fam3.1 aminoacylation ribozyme variant] | 2
AAGUUUUCUAAUAGUCGCUAG [Fam3.1 aminoacylation ribozyme variant] | 2.43
AAGUUUUCUAAUAGUCGUAAG [Fam3.1 aminoacylation ribozyme variant] | 2.29
AAGUUUUCUAAUAGUUGCAAG [Fam3.1 aminoacylation ribozyme variant] | 2.94
AAUCACCUAGGUCAUCGUGUG [Fam2.2 aminoacylation ribozyme variant] | 5.37
AAUUUUGCUAAUAAUCGCAAG [Fam3.1 aminoacylation ribozyme variant] | 2.03
ACGUUUGCUAAUAGUCCCAAG [Fam3.1 aminoacylation ribozyme variant] | 2
AGUACCCUGGUCAUCGAGUGC [Fam2.1 aminoacylation ribozyme variant] | 2.36
